# Assay results: patent US20140087426
# What was measured:
# Test in all cases: cell_activity
# [1] = system: spexin TALEN right (synthetic (Xanthomonas TALE)); details: 33/36, as pair
# [2] = system: tnikb TALEN right (synthetic (Xanthomonas TALE)); details: 18/39, as pair
# [3] = system: kiss2 TALEN right (synthetic (Xanthomonas TALE)); details: 69/69, as pair
# [4] = system: miR-214 TALEN right (synthetic (Xanthomonas TALE)); details: 25/47, as pair
# [5] = system: miR-451 TALEN right (synthetic (Xanthomonas TALE)); details: 2/47, as pair, 22-bp spacer
# [6] = system: kiss1 TALEN right (synthetic (Xanthomonas TALE)); details: 32/40, as pair
# [7] = system: gria3a TALEN right (synthetic (Xanthomonas TALE)); details: 49/55, as pair, zebrafish embryos
# [8] = system: kiss2r TALEN right (synthetic (Xanthomonas TALE)); details: 3/45, as pair, 21-bp spacer
# [9] = system: kiss1r TALEN right (synthetic (Xanthomonas TALE)); details: 22/43, as pair
# [10] = system: miR-1-1 TALEN right (synthetic (Xanthomonas TALE)); details: 64/66, as pair
# [11] = system: miR-1-2 TALEN right (synthetic (Xanthomonas TALE)); details: 34/41, as pair
# [12] = system: gnrh3 TALEN right (synthetic (Xanthomonas TALE)); details: 6/33, as pair, 21-bp spacer
# [13] = system: kiss2r TALEN left (synthetic (Xanthomonas TALE)); details: 3/45, as pair, 21-bp spacer
# [14] = system: kiss1 TALEN left (synthetic (Xanthomonas TALE)); details: 32/40, as pair
# [15] = system: miR-1-1 TALEN left (synthetic (Xanthomonas TALE)); details: 64/66, as pair
# [16] = system: miR-1-2 TALEN left (synthetic (Xanthomonas TALE)); details: 34/41, as pair
# [17] = system: miR-451 TALEN left (synthetic (Xanthomonas TALE)); details: 2/47, as pair, 22-bp spacer
# [18] = system: gria3a TALEN left T8G (synthetic (Xanthomonas TALE)); details: mean of 3
# [19] = system: gria3a TALEN left CLRT (synthetic (Xanthomonas TALE)); details: mean of 3
# [20] = system: gria3a TALEN left A7T (synthetic (Xanthomonas TALE)); details: mean of 3
# [21] = system: gria3a TALEN left -C1 (synthetic (Xanthomonas TALE)); details: mean of 3
# [22] = system: gria3a TALEN left -T15 (synthetic (Xanthomonas TALE)); details: mean of 3
# [23] = system: gria3a TALEN left C1A (synthetic (Xanthomonas TALE)); details: mean of 3
# [24] = system: gria3a TALEN left T8A (synthetic (Xanthomonas TALE)); details: 0/32 in 3
# [25] = system: gria3a TALEN left CLRA (synthetic (Xanthomonas TALE)); details: mean of 3
# [26] = system: gria3a TALEN left T8C (synthetic (Xanthomonas TALE)); details: mean of 3
# [27] = system: gria3a TALEN left C1G (synthetic (Xanthomonas TALE)); details: mean of 3
# [28] = system: gria3a TALEN left C1T (synthetic (Xanthomonas TALE)); details: mean of 3
# [29] = system: gria3a TALEN left G2A (synthetic (Xanthomonas TALE)); details: mean of 3
# [30] = system: gria3a TALEN left -G2 (synthetic (Xanthomonas TALE)); details: mean of 3, nearly abolished
# [31] = system: gria3a TALEN left G2C (synthetic (Xanthomonas TALE)); details: mean of 3
# [32] = system: gria3a TALEN left (synthetic (Xanthomonas TALE)); details: mean of 3; with right TALEN, zebrafish embryos; Table 4: 49/55
# [33] = system: gria3a TALEN left G2T (synthetic (Xanthomonas TALE)); details: mean of 3
# [34] = system: gria3a TALEN left -T8 (synthetic (Xanthomonas TALE)); details: 0/64 in 3
# [35] = system: gria3a TALEN left T15C (synthetic (Xanthomonas TALE)); details: mean of 3
# [36] = system: gria3a TALEN left T15A (synthetic (Xanthomonas TALE)); details: mean of 3
# [37] = system: gria3a TALEN left A7C (synthetic (Xanthomonas TALE)); details: mean of 3
# [38] = system: gria3a TALEN left CLRG (synthetic (Xanthomonas TALE)); details: mean of 3
# [39] = system: gria3a TALEN left A7G (synthetic (Xanthomonas TALE)); details: mean of 3
# [40] = system: gria3a TALEN left T15G (synthetic (Xanthomonas TALE)); details: mean of 3
# [41] = system: gria3a TALEN left -A7 (synthetic (Xanthomonas TALE)); details: mean of 3, nearly abolished
# [42] = system: kiss2 TALEN left (synthetic (Xanthomonas TALE)); details: 69/69, as pair
# [43] = system: miR-214 TALEN left (synthetic (Xanthomonas TALE)); details: 25/47, as pair
# [44] = system: tnikb TALEN left (synthetic (Xanthomonas TALE)); details: 18/39, as pair
# [45] = system: gnrh3 TALEN left (synthetic (Xanthomonas TALE)); details: 6/33, as pair, 21-bp spacer
# [46] = system: kiss1r TALEN left (synthetic (Xanthomonas TALE)); details: 22/43, as pair
# [47] = system: spexin TALEN left (synthetic (Xanthomonas TALE)); details: 33/36, as pair
sequence,measurement,setting,value
AATGTCATGCAATGTTA (double strand) [spexin right site],activity (% mutant alleles),[1],91.7
ATTTTTGAGCTGGTGGA (double strand) [tnikb right site],activity (% mutant alleles),[2],46.2
CAGCTATGAGAGCAATA (double strand) [kiss2 right site],activity (% mutant alleles),[3],100
CAGGCAGACAGATGGCA (double strand) [miR-214 right site],activity (% mutant alleles),[4],53.2
CTGAGTTTAGTAATGGA (double strand) [miR-451 right site],activity (% mutant alleles),[5],4.3
CTTAGAAGGTAAGTTCA (double strand) [kiss1 right site],activity (% mutant alleles),[6],80
GAGTTTCTGCTCTTTA (double strand) [gria3a right site],activity (% mutant alleles),[7],89.1
GATGAAGACGGTTACAAA (double strand) [kiss2r right site],activity (% mutant alleles),[8],6.7
GTAATAATAGAACCTCA (double strand) [kiss1r right site],activity (% mutant alleles),[9],51.2
GTATGTATCCCAGGTGA (double strand) [miR-1-1 right site],activity (% mutant alleles),[10],97
GTATGTATTCTTGGTCA (double strand) [miR-1-2 right site],activity (% mutant alleles),[11],82.9
GTCCAGTTGTTGCTGTTA (double strand) [gnrh3 right site],activity (% mutant alleles),[12],18.2
TAACCTAATAGTCATCTA (double strand) [kiss2r left site],activity (% mutant alleles),[13],6.7
TACACACAAACCCCTCT (double strand) [kiss1 left site],activity (% mutant alleles),[14],80
TATGAACAAGAGCAGC (double strand) [miR-1-1 left site],activity (% mutant alleles),[15],97
TATGAACATATAAAAGC (double strand) [miR-1-2 left site],activity (% mutant alleles),[16],82.9
TCGCTGTGACAGAGAGA (double strand) [miR-451 left site],activity (% mutant alleles),[17],4.3
TCGTCCAATAGCTTCTC (double strand) [gria3a left site],activity (% mutant alleles),[18],14.6
same,activity (% mutant alleles),[19],63.1
same,activity (% mutant alleles),[20],71.9
same,activity (% mutant alleles),[21],30.7
same,activity (% mutant alleles),[22],71.9
same,activity (% mutant alleles),[23],33.3
same,activity (% mutant alleles),[24],0
same,activity (% mutant alleles),[25],76
same,activity (% mutant alleles),[26],21.9
same,activity (% mutant alleles),[27],79.2
same,activity (% mutant alleles),[28],2.1
same,activity (% mutant alleles),[29],17.9
same,activity (% mutant alleles),[30],1.6
same,activity (% mutant alleles),[31],12.1
same,activity (% mutant alleles),[32],84.2
same,activity (% mutant alleles),[33],52.6
same,activity (% mutant alleles),[34],0
same,activity (% mutant alleles),[35],3.1
same,activity (% mutant alleles),[36],20.8
same,activity (% mutant alleles),[37],40.1
same,activity (% mutant alleles),[38],2.2
same,activity (% mutant alleles),[39],82.3
same,activity (% mutant alleles),[40],65.6
same,activity (% mutant alleles),[41],0.5
TGATTCTCTTCATGTCTG (double strand) [kiss2 left site],activity (% mutant alleles),[42],100
TGCAGAACTTCCTGCAC (double strand) [miR-214 left site],activity (% mutant alleles),[43],53.2
TGTTATTTTCTCCCCT (double strand) [tnikb left site],activity (% mutant alleles),[44],46.2
TGTTTTAGTTTTAGCATG (double strand) [gnrh3 left site],activity (% mutant alleles),[45],18.2
TTCATGTGCAAATTTGT (double strand) [kiss1r left site],activity (% mutant alleles),[46],51.2
TTTGTGTCCCATTCCT (double strand) [spexin left site],activity (% mutant alleles),[47],91.7
